Publication PMC12464271

Target: HPV-16 L1 capsid protein lacking the first twenty-nine N-terminal amino acids after the start codon (Human papillomavirus type 16) (UniProt P03101)
Assay: SEC + other: negative-stain TEM; purified L1 in phosphate buffer pH 7.5 with the reducing agent DTT (20 mM); aggregates disassembled into soluble pentamers

HPV-16 L1 capsid protein lacking the first twenty-nine N-terminal amino acids after the start codon (from UniProt P03101 1-505) (natural protein)
stoichiometry N: 5
